Data taken from PMC7455749, “A leap in quantum efficiency through light harvesting in photoreceptor UVR8” (Nature Communications, 2020).

B1: UVR8 mutant 6Wd + 3Wp (all four tryptophans of the 4Wc pyramid center changed to phenylalanine, on the W400F template) (receptor, Arabidopsis thaliana, UniProt Q9FN03 1-440, looked up)
chain: MAEDMAADEVTAPPRKVLIISAGASHSVALLSGDIVCSWGRGEDGQLGHGDAEDRPSPTQLSALDGHQIVSVTCGADHTVAYSQSGMEVYSWGFGDFGRLGHGNSSDLFTPLPIKALHGIRIKQIACGDSHCLAVTMEGEVQSWGRNQNGQLGLGDTEDSLVPQKIQAFEGIRIKMVAAGAEHTAAVTEDGDLYGWGWGRYGNLGLGDRTDRLVPERVTSTGGEKMSMVACGFRHTISVSYSGALYTYGWSKYGQLGHGDLEDHLIPHKLEALSNSFISQISGGFRHTMALTSDGKLYGWGWNKFGQVGVGNNLDQCSPVQVRFPDDQKVVQVSCGFRHTLAVTERNNVFAWGRGTNGQLGIGESVDRNFPKIIEALSVDGASGQHIESSNIDPSSGKSFVSPAERYAVVPDETGLTDGSSKGNGGDISVPQTDVKRVRI
notes: UVR8, Arabidopsis thaliana; W400F template
B2: Arabidopsis thaliana UVR8 (UV … LOCUS 8) W400F, redefined as wild type (WT) (receptor, UniProt Q9FN03 1-440, looked up)
chain: MAEDMAADEVTAPPRKVLIISAGASHSVALLSGDIVCSWGRGEDGQLGHGDAEDRPSPTQLSALDGHQIVSVTCGADHTVAYSQSGMEVYSWGWGDFGRLGHGNSSDLFTPLPIKALHGIRIKQIACGDSHCLAVTMEGEVQSWGRNQNGQLGLGDTEDSLVPQKIQAFEGIRIKMVAAGAEHTAAVTEDGDLYGWGWGRYGNLGLGDRTDRLVPERVTSTGGEKMSMVACGWRHTISVSYSGALYTYGWSKYGQLGHGDLEDHLIPHKLEALSNSFISQISGGWRHTMALTSDGKLYGWGWNKFGQVGVGNNLDQCSPVQVRFPDDQKVVQVSCGWRHTLAVTERNNVFAWGRGTNGQLGIGESVDRNFPKIIEALSVDGASGQHIESSNIDPSSGKSFVSPAERYAVVPDETGLTDGSSKGNGGDISVPQTDVKRVRI
notes: UVR8, Arabidopsis thaliana; the construct holds residue 400 (W400F); also called UVR8 WT

Legend:
[1] = target: the molecule itself; assay: not stated; oligomeric state of the UVR8 mutants without UV-B; method not given; UVR8 lysis buffer (150 mM NaCl, 25 mM Tris, pH 8.0), room temperature
[2] = target: the molecule itself; assay: SEC; Superdex200 size column run after the sub-nanosecond TCSPC measurements (290 nm pulsed LED, 10 uM samples); dimer to monomers

Protein	stoichiometry N [1]	binding result [2]
B1	2	
B2		binds
